Patent publication US8168592B2 (Amgen Inc., priority 2005, dated 2012)
Read-outs that look alike come from different tables or passages of the source.

Tests used:
[1] = in vitro metabolic identification in 100% monkey plasma, LC-MS/MS; type: in vitro ADME; details: 100% Cynomolgus monkey plasma, 4 hours
Text: Extracted samples were collected for LC-MS/MS analysis.
(Also, see Example 7 herein below for comparison with in vivo metabolic identification.)

[2] = in vivo metabolic identification in monkey plasma during intravenous infusion; set-up: species or system Cynomolgus monkey; details: 20 min during intravenous infusion
Text: Monkey pharmacokinetic studies.
Samples were taken as described above. After thawing, each 100-11 plasma sample was extracted by solid phase extraction. Extracted samples were collected for LC-MS/MS analysis.

[3] = solubility in aqueous conjugation buffers; type: physicochemical
Description: Co-solvent mediated conjugation of vehicle to CGRP peptide antagonists. […] In an attempt to better solubilize these less soluble peptides during the conjugation reaction, and thereby improve conjugate yields, a variety of alcohol co-solvents were tested in the conjugation reaction.

rat CGRP1 receptor = rat CGRP1 receptor (Rattus norvegicus, UniProt Q63118+Q9JJ74); assay: in vitro functional potency against the rat ortholog of the CGRP1 receptor; type: cell-based
rat CGRP1 receptor, sequence (Q63118 24-464): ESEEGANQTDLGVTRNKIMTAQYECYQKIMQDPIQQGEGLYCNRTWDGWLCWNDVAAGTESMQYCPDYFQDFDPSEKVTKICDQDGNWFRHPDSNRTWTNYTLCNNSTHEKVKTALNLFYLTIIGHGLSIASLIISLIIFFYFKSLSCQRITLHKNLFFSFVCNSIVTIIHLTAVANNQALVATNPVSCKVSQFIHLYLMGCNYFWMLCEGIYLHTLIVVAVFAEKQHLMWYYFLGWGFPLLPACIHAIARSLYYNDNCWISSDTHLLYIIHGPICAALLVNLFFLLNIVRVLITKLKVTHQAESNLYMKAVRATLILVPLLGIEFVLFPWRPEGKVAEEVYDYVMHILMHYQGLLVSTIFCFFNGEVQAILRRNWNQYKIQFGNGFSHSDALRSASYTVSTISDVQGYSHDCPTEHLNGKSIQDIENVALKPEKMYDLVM
rat CGRP1 receptor, sequence (Q9JJ74 27-148): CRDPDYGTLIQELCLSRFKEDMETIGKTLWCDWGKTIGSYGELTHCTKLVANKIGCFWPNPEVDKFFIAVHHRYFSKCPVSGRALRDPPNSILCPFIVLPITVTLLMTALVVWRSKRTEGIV
Text: Results and Conclusions. […] This was reflected by an apparently similar rightward shift in potency in vivo.

[4] = stability in undiluted rat plasma at 37° C. by ELISA; type: in vitro ADME
Text: (§1) Examples of this approach are the replacement of arginine (R) with citrulline, and phenylalanine (F) with 3-(1-naphthyl)alanine. We have also cyclized side-chain to side-chain (for example, i, i+4 residues) to form ring structures which also increase overall plasma stability (See, e.g., FIG. 3 and FIG. 13).

[5] = stability in undiluted Cynomolgus plasma at 37° C. by ELISA; type: in vitro ADME; details: cynomolgus monkey
Text: as §1

[6] = stability in undiluted human plasma at 37° C. by ELISA; type: in vitro ADME
Text: as §1

[7] = rat, in vivo, 2 mg/kg
Description: Rat pharmacokinetic studies. […] There were three rats per group (n=3), each weighing 250-325 g. Each group received either a 2 mg/kg intravenous or subcutaneous discrete administration. The approximate dose volume was 0.3 mL per rat. Approximately 0.25 mL of whole blood was taken per time point at the following post-dose collection times for the intravenous groups (in hours): 0.083, 0.25, 0.5, 1, 2, 4, 6, 8, 24, 48, 72, 96 and the following time points for the subcutaneous groups (in hours): 0.25, 0.5, 1, 2, 4, 6, 8, 24, 48, 72, 96. Whole blood samples were collected in microtainer vials containing EDTA as anticoagulant and were kept on wet ice until processed for plasma. The plasma was obtained by centrifuging the whole blood for approximately 5 min at 11,500 rpm. Plasma was transferred to new tubes and stored frozen at approximately −70° C. until quantitative analysis. […] The individual sample concentrations for each time point were averaged (n=3) within a given dose group using Excel 2000 software. The averaged plasma concentration-time data were analyzed by noncompartmental methods using WinNonlin v.3.3 software. Nominal sample times were used in the pharmacokinetic analysis. The area under the concentration-time curve was calculated using the linear/log trapezoidal method to determine exposure.

## CC(=O)N[C@@H](Cc1c[nH]c2ccccc12)C(=O)N[C@H](C(=O)N[C@H](C(=O)N[C@@H](Cc1c[nH]cn1)C(=O)N[C@@H](CCCNC(N)=O)C(=O)N[C@@H](CC(C)C)C(=O)N[C@@H](C)C(=O)NCC(=O)N[C@@H](CC(C)C)C(=O)N[C@@H](CC(C)C)C(=O)N[C@@H](CO)C(=O)N[C@@H](CCCNC(N)=O)C(=O)N[C@@H](CO)C(=O)NCC(=O)NCC(=O)N[C@H](C(=O)N[C@H](C(=O)N[C@@H](CCCCNC(=N)N)C(=O)N[C@@H](CCCCN)C(=O)N[C@@H](CC(N)=O)C(=O)N[C@@H](Cc1ccccc1)C(=O)N[C@H](C(=O)N1CCC[C@H]1C(=O)N[C@H](C(=O)N[C@@H](CC(=O)O)C(=O)N[C@H](C(=O)NCC(=O)N1[C@H](C(=O)N[C@@H](Cc2ccccc2)C(=O)N[C@@H](C)C(=O)N[C@@H](Cc2ccccc2)C(N)=O)C[C@@H]2CCCC[C@@H]21)C(C)C)[C@@H](C)O)C(C)C)C(C)C)C(C)C)[C@@H](C)O)C(C)C [SEQ ID NO:658]
[1]
  major degradation product: fragment W7-K25
[2]
  degradation products in vivo: fragments W7-T9, T30-A36, W7-N26, T30-F37 and W7-hR24
[3]
  solubility in words: relatively insoluble

## SEQ ID NO:791 (WVTHXLAGLLSXSGGVVRKNFVPTDVGPFAF; not fully specified; CGRP peptide; MOD_RES (1)..(1): …ON; MISC_FEATURE (5)..(5): xaa=citrulline; MISC_FEATURE (12)..(12): xaa=citrulline; MISC_FEATURE (19)..(19): PEGylated; MOD_RES (31)..(31): AMIDATION)
Rat CGRP1 receptor
  rightward shift of in vitro potency compared with SEQ ID NO:31: approximately 9 fold

## Ac-WVTH[Cit]LAGLLS[Cit]SGGVV[hArg]K(20 KPEGald)NFVPTDVGP[1-Nal]AF-NH2 (WVTHXLAGLLSXSGGVVXKNFVPTDVGPXAF; not fully specified; N-acetyl, C-amide, 20 kDa PEG, Cit, hArg, 1-Nal; CGRP peptide; MOD_RES (1)..(1): …ON; MISC_FEATURE (5)..(5): xaa=citrulline; MISC_FEATURE (12)..(12): xaa=citrulline; MISC_FEATURE (18)..(18): xaa=homoarginine; MISC_FEATURE (19)..(19): PEGylated; MISC_FEATURE (29)..(29): xaa=3-(1-naphthyl)alanine; MOD_RES (31)..(31): AMI) [SEQ ID NO: 173]
[4]
  t1/2 in rat plasma: 8 to 9 h
[5]
  t1/2 in Cynomolgus plasma: >24 h
[6]
  t1/2 in human plasma: >24 h
[7]; iv
  AUC0-inf: 80996 ng·h/mL
  AUC0-t: 80440 ng·h/mL
  MRT: 4.97 h
[7]; sc
  AUC0-t: 4385 ng·h/mL
  F %: 5%
